Assays:
HER2-ECD-Fc [1] = molecular target: T1, HER2-ECD-Fc (human, UniProt P04626 23-652); assay: ELISA on HER2-ECD-Fc; antibody at 5 µg/mL
T1 construct: extracellular domain; Produced in FreeStyle 293F cells; also called HER2-ECD Fc fusion protein

HER2-ECD-Fc [2] = molecular target: T1, HER2-ECD-Fc; assay: ELISA on HER2-ECD-Fc; antibody at 50 µg/mL
HER2-ECD-Fc [3] = molecular target: T1, HER2-ECD-Fc; assay: ELISA on HER2-ECD-Fc; antibody at 5 × 10^-1 µg/mL
HER2-ECD-Fc [4] = molecular target: T1, HER2-ECD-Fc; assay: ELISA on HER2-ECD-Fc; antibody at 5 × 10^-2 µg/mL
HER2-ECD-Fc [5] = molecular target: T1, HER2-ECD-Fc; assay: ELISA on HER2-ECD-Fc; antibody at 5 × 10^-3 µg/mL
HER2-ECD-Fc [6] = molecular target: T1, HER2-ECD-Fc; assay: ELISA on HER2-ECD-Fc; antibody at 5 × 10^-4 µg/mL
HER2-ECD-Fc [7] = molecular target: T1, HER2-ECD-Fc; assay: ELISA on HER2-ECD-Fc; antibody at 5 × 10^-5 µg/mL
HER2-ECD-Fc [8] = molecular target: T1, HER2-ECD-Fc; assay: ELISA on HER2-ECD-Fc; antibody at 5 × 10^-6 µg/mL
HER2-ECD-Fc [9] = molecular target: T1, HER2-ECD-Fc; assay: ELISA on HER2-ECD-Fc; antibody at 5 × 10^-7 µg/mL
HER2-ECD-His = molecular target: T2, HER2-ECD-His (human, UniProt P04626 23-652); assay: SPR (Biacore, CM5), IgG captured by anti-human IgG, HER2-ECD-His as analyte
T2 construct: extracellular domain; also called HER2-His; HER2-ECD-His protein; not shown: His tag
Procedure: 2000 RU of goat anti-human IgG (Invitrogen, #H10500) was immobilized onto a CM5 sensor chip by […]. Then, the antibodies were allowed to bind at a rate of 50 μL/min for 5 minutes and then stabilized for 5 minutes by flowing a buffer. After stabilizing the antibodies, the HER2-ECD-His protein was allowed to bind at a rate of 50 μL/min for 4 minutes and then separated by flowing a buffer for 15 minutes. After analyzing the concentration, the resultant was recycled using 10 mM glycine (pH 1.5) and then subjected to the subsequent assay. The affinity of the antibodies was analyzed using the BIAevaluation software.

EGFR-ECD-Fc = molecular target: T3, EGFR-ECD-Fc (human, UniProt P00533 25-645); assay: ELISA on ErbB family extracellular domains, Absorbance at 450 nm; antibody concentration not given
T3 construct: extracellular domain; also called extracellular domain of EGFR; not shown: Hinge and Fc region (CH2-CH3) of human IgG1; The protein was produced in the same manner as HER2-ECD-Fc
Text: (§1) It was investigated whether the developed five antibodies of the present disclosure specifically bind to HER2 belonging to the ErbB family proteins by ELISA.

[10] = molecular target: T4, HER3 (R&D Systems, #348-RB-050) (human, UniProt P21860 20-643); assay: as above
T4 construct: extracellular domain; Bought
Text: as §1

[11] = molecular target: T5, HER4 (R&D Systems, #1131-ER-050) (human, UniProt Q15303 26-651); assay: as above
T5 construct: extracellular domain; Bought
T5 sequence (looked up): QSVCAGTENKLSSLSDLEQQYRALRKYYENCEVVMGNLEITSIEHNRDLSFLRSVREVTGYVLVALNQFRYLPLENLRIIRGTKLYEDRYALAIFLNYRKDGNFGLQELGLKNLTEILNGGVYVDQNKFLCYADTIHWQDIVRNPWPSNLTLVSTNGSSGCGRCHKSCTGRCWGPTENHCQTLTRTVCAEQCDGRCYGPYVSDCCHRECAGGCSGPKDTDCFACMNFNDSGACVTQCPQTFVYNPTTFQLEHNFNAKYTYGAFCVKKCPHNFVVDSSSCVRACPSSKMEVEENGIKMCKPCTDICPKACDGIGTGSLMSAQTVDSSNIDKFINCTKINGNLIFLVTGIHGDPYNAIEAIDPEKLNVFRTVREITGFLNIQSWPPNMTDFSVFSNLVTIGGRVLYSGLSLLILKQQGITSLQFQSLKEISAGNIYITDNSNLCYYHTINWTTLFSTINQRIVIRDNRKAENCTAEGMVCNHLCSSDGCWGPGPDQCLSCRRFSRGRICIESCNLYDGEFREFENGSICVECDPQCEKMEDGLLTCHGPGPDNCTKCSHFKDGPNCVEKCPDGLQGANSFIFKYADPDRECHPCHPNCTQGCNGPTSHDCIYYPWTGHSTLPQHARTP
Text: as §1

HER2-ECD DIII Fc = molecular target: T6, HER2-ECD DIII Fc (human, UniProt P04626 342-510, limits assumed); assay: ELISA on plate-coated HER2 domain-Fc fusion (1 µg/mL), anti-human IgG-HRP, Abs 450 nm; antibody concentration not given
T6 construct: domain: domain 3; also called domain 3 of the extracellular domains of the HER2 protein; not shown: Hinge and Fc region (CH2-CH3) of human IgG1, at the C-terminus
Procedure: (§2) The HER2-ECD DI Fc, HER2-ECD DII Fc, HER2-ECD DIII Fc, HER2-ECD DIV Fc and HER2-ECD Fc fusion proteins were immobilized at 4° C. overnight onto a Costar 96-well plate (Corning, Cat. No. 3590) at a concentration of 1 μg/mL […]. The resultant was washed 3 times with TBS-T (0.05% Triton X-100) and then blocked at room temperature for 1 hour with 100 μL of TBS-T/BSA (5% BSA). After washing the blocked plate 3 times and adding the anti-HER2 antibody, the antibody was allowed to bind at room temperature for 1 hour. After washing 3 times and then adding anti-human IgG-HRP diluted to 1:3,000 in TBS-T/BSA, as a secondary antibody, the antibody was allowed to bind at room temperature for 1 hour. After washing the resultant 3 times and adding TMB (SurModics, Cat. No. TMBC-1000-01), the mixture was allowed to develop color at room temperature for 5 minutes. Then, the color development was stopped by adding 1 N sulfuric acid (DukSan, Cat. No. 254). Absorbance was measured at 450 nm using Victor X3 (PerkinElmer, Cat. No. 2030-0030).

HER2-ECD DI Fc = molecular target: T7, HER2-ECD DI Fc (human, UniProt P04626 23-217, limits assumed); assay: as above
T7 construct: domain: domain 1; also called domain 1 of the extracellular domains of the HER2 protein; not shown: Hinge and Fc region (CH2-CH3) of human IgG1, at the C-terminus
Procedure: as §2

B1: hz39D2 (antibody, V domains shown)
VH: QVQLVQSGSELKKPGASVKVSCKASGYTFTNYGVNWVRQAPGQGLEWMGWINTHTGEPTYAEEFKGRFVFSLDTSVSTAYLQISSLKAEDTAVYYCARDDYYVRVDYWGQGTTVTVSS
VL: DIQMTQSPSSLSASVGDRVTITCKASQDINSYLSWFQQKPGKAPKTLIYRANRLVDGVPSRFSGSGSGQDYTLTISSLQPEDFATYYCLQYDEFPWTFGQGTKVEIK
notes: Humanized antibody, captured as IgG by anti-human IgG in SPR; also called humanized 39D2 antibody
- absorbance (HER2-ECD-Fc [1]): 2.9
- absorbance (HER2-ECD-Fc [2]): 2.83
- absorbance (HER2-ECD-Fc [3]): 2.78
- absorbance (HER2-ECD-Fc [4]): 2.92
- absorbance (HER2-ECD-Fc [5]): 2.29
- absorbance (HER2-ECD-Fc [6]): 0.47
- absorbance (HER2-ECD-Fc [7]): 0.15
- absorbance (HER2-ECD-Fc [8]): 0.12
- absorbance (HER2-ECD-Fc [9]): 0.12
- Kd (HER2-ECD-His): 37 nM
- koff (HER2-ECD-His): 0.0025 s⁻¹
- kon (HER2-ECD-His): 68000 M⁻¹ s⁻¹
- binding result (EGFR-ECD-Fc): no binding
- binding result [10]: no binding
- binding result [11]: no binding
- binding result (HER2-ECD DIII Fc): no binding

B2: hz39D2.14 (antibody, V domains shown)
VH: QVQLVQSGSELKKPGASVKVSCKASGYTFTNYGVNWVRQAPGQGLEWMGWINTHTGEPTYAEEFKGRFVFSLDTSVSTAYLQISSLKAEDTAVYYCARDEYYVRTDYWGQGTTVTVSS
VL: DIQMTQSPSSLSASVGDRVTITCKASQDINSYLSWFQQKPGKAPKTLIYRANRLVDGVPSRFSGSGSGQDYTLTISSLQPEDFATYYCLQYDEFPWTFGQGTKVEIK
- Kd (HER2-ECD-His): 8 nM
- koff (HER2-ECD-His): 0.0003 s⁻¹
- kon (HER2-ECD-His): 37000 M⁻¹ s⁻¹

B3: hz39D2.23 (antibody, human IgG1, kappa, V domains shown)
VH: QVQLVQSGSELKKPGASVKVSCKASGYTFTNYGVNWVRQAPGQGLEWMGWINTHTGEPTYAEEFKGRFVFSLDTSVSTAYLQISSLKAEDTAVYYCARDEYYVRVDYWGQGTTVTVSS
VL: DIQMTQSPSSLSASVGDRVTITCKASQDINSYLSWFQQKPGKAPKTLIYRANRLVDGVPSRFSGSGSGQDYTLTISSLQPEDFATYYCLQLDEFPWTFGQGTKVEIKR
- Kd (HER2-ECD-His): 2.8 nM
- koff (HER2-ECD-His): 0.0002 s⁻¹
- kon (HER2-ECD-His): 71000 M⁻¹ s⁻¹

B4: hz39D2.22 (antibody, V domains shown)
VH: QVQLVQSGSELKKPGASVKVSCKASGYTFTNYGVNWVRQAPGQGLEWMGWINTHTGEPTYAEEFKGRFVFSLDTSVSTAYLQISSLKAEDTAVYYCARDEYYVRVDYWGQGTTVTVSS
VL: DIQMTQSPSSLSASVGDRVTITCKASQDINSYLSWFQQKPGKAPKTLIYRANRLVDGVPSRFSGSGSGQDYTLTISSLQPEDFATYYCLELDEFPWTFGQGTKVEIK
- Kd (HER2-ECD-His): 2 nM
- koff (HER2-ECD-His): 0.00016 s⁻¹
- kon (HER2-ECD-His): 81000 M⁻¹ s⁻¹

B5: hz2G10 (antibody, V domains shown)
VH: EVQLVESGGGLVQPGGSLRLSCAASGFTFSDYYMYWVRQAPGKGLEWVAYINSGGGSTYYPDTVKGRFTISRDNAKNSLYLQMNSLRAEDTAVYYCAREALYDYDYAMDYWGQGTTVTVSS
VL: DIVMTQSPLSLSVTPGQPASISCKSSQSLLYSNGKTYLNWLLQKPGQSPQRLIYLVSKLDSGVPDRFSGSGSGTDFTLKISRVEAEDVGVYYCVQGTHFPLTFGGGTKVEIK
notes: Humanized antibody, detected with anti-human IgG-HRP; Only the variable domains are tied to the name; also called humanized 2G10 antibody
- absorbance (HER2-ECD-Fc [1]): 2.79
- absorbance (HER2-ECD-Fc [2]): 2.81
- absorbance (HER2-ECD-Fc [3]): 2.69
- absorbance (HER2-ECD-Fc [4]): 1.16
- absorbance (HER2-ECD-Fc [5]): 0.22
- absorbance (HER2-ECD-Fc [6]): 0.12
- absorbance (HER2-ECD-Fc [7]): 0.12
- absorbance (HER2-ECD-Fc [8]): 0.12
- absorbance (HER2-ECD-Fc [9]): 0.12
- binding result (EGFR-ECD-Fc): no binding
- binding result [10]: no binding
- binding result [11]: no binding
- binding result (HER2-ECD DIII Fc): no binding

B6: 1G3 (antibody, V domains shown)
VH: EVQLQQSGAELVKPGASVKLSCTASDFNIVDTYMHWVKQRPEQGLEWIGRIDPANGYTRYDPNFQGKATITADTSSNTAYLQLSSLTSEDTAVYYCARYYYGFYAMDYWGQGTTVTVSS
VL: DIVMTQSHKFMSTSVGDRVSITCKASQDVSTAVAWYQQKPGQSPKLLIYSASYRYTGVPDRFTGSGSGTDFTFTISSVQAEDLAVYYCQQHYSTPPTFGGGTKLELK
- absorbance (HER2-ECD-Fc [1]): 2.81
- absorbance (HER2-ECD-Fc [2]): 2.76
- absorbance (HER2-ECD-Fc [3]): 2.78
- absorbance (HER2-ECD-Fc [4]): 2.79
- absorbance (HER2-ECD-Fc [5]): 1.77
- absorbance (HER2-ECD-Fc [6]): 0.35
- absorbance (HER2-ECD-Fc [7]): 0.14
- absorbance (HER2-ECD-Fc [8]): 0.11
- absorbance (HER2-ECD-Fc [9]): 0.11
- binding result (EGFR-ECD-Fc): no binding
- binding result [10]: no binding
- binding result [11]: no binding
- binding result (HER2-ECD DI Fc): no binding
- binding result (HER2-ECD DIII Fc): no binding

B7: 24D3 (antibody, V domains shown)
VH: EVKLVESGGGLVKPGGSLKLSCAASGFTFSSCAMSWVRQTPEKRLEWVATISGGGSYTYYPDSVKGRFTISRDNAKNTLYLQMSSLRSEDTAMYYCARHGGYESWFPYWGQGTLVTVSA
VL: DIVMTQSPLSLPVSLGDQASISCRSSQSLVHSNGNTYLHWYLQKPGQSPKLLIYKVSNRFSGVPDRFSGSGSGTDFTLKISRVEAEDLGVYFCSQSTHVPPWTFGGGTKLEIK
- absorbance (HER2-ECD-Fc [1]): 2.92
- absorbance (HER2-ECD-Fc [2]): 2.75
- absorbance (HER2-ECD-Fc [3]): 2.9
- absorbance (HER2-ECD-Fc [4]): 2.76
- absorbance (HER2-ECD-Fc [5]): 1.13
- absorbance (HER2-ECD-Fc [6]): 0.22
- absorbance (HER2-ECD-Fc [7]): 0.12
- absorbance (HER2-ECD-Fc [8]): 0.11
- absorbance (HER2-ECD-Fc [9]): 0.11
- binding result (EGFR-ECD-Fc): no binding
- binding result [10]: no binding
- binding result [11]: no binding
- binding result (HER2-ECD DI Fc): no binding

— patent publication US20260028418A1 (GC CELL, published 2026)
